Reference: patent US20160002357A1 (Pfizer, published 2016)
Substitutions are numbered along the chain they refer to.

B1: anti-P-cadherin scFv 153 alanine-mutant L1.1-Ala (scFv, V domains shown)
VH: EVQLVQSGAEVKKPGASVKVSCKASGYTFTSYGISWVRQAPGQGLEWMGWISAYNGNTNYAQKLQGRVTMTTDTSTSTAYMELRSLRSDDTAVYYCATIDTANAFGIWGQGTMVTVSS
VL: QSVLTQPPSVSAAPGQKVTISCAGSSSNIGNNYVSWYQQLPGTAPKLLIYDNNKRPSGIPDRFSGSKSGTSATLGITGLQTGDEADYYCGTWDSSLSGVVFGGGTKLTVL
notes: scFv on phage
B2: anti-P-cadherin scFv 153 alanine-mutant L1.2-Ala (scFv, V domains shown)
VH: B1 VH
VL: B1 VL with A23S, G24A
notes: scFv on phage
B3: anti-P-cadherin scFv 153 alanine-mutant L1.3-Ala (scFv, V domains shown)
VH: B1 VH
VL: B1 VL with A23S, S25A
notes: scFv on phage
B4: anti-P-cadherin scFv 153 alanine-mutant L1.4-Ala (scFv, V domains shown)
VH: B1 VH
VL: B1 VL with A23S, S26A
notes: scFv on phage
B5: anti-P-cadherin scFv 153 alanine-mutant L1.5-Ala (scFv, V domains shown)
VH: B1 VH
VL: B1 VL with A23S, S27A
notes: scFv on phage
B6: anti-P-cadherin scFv 153 alanine-mutant L1.6-Ala (scFv, V domains shown)
VH: B1 VH
VL: B1 VL with A23S, N28A
notes: scFv on phage
B7: anti-P-cadherin scFv 153 alanine-mutant L1.7-Ala (scFv, V domains shown)
VH: B1 VH
VL: B1 VL with A23S, I29A
notes: scFv on phage
B8: anti-P-cadherin scFv 153 alanine-mutant L1.8-Ala (scFv, V domains shown)
VH: B1 VH
VL: B1 VL with A23S, G30A
notes: scFv on phage
B9: anti-P-cadherin scFv 153 alanine-mutant L1.9-Ala (scFv, V domains shown)
VH: B1 VH
VL: B1 VL with A23S, N31A
notes: scFv on phage
B10: anti-P-cadherin scFv 153 alanine-mutant L1.10-Ala (scFv, V domains shown)
VH: B1 VH
VL: B1 VL with A23S, N32A
notes: scFv on phage
B11: anti-P-cadherin scFv 153 alanine-mutant H2.9-Ala (scFv, V domains shown)
VH: B1 VH with T58A
VL: B1 VL with A23S
notes: scFv on phage
B12: anti-P-cadherin scFv 153 alanine-mutant H2.10-Ala (scFv, V domains shown)
VH: B1 VH with N59A
VL: B1 VL with A23S
notes: scFv on phage
B13: anti-P-cadherin scFv 153 alanine-mutant H2.11-Ala (scFv, V domains shown)
VH: B1 VH with Y60A
VL: B1 VL with A23S
notes: scFv on phage
B14: anti-P-cadherin scFv 153 alanine-mutant H2.13-Ala (scFv, V domains shown)
VH: B1 VH with Q62A
VL: B1 VL with A23S
notes: scFv on phage
B15: anti-P-cadherin scFv 153 alanine-mutant H2.14-Ala (scFv, V domains shown)
VH: B1 VH with K63A
VL: B1 VL with A23S
notes: scFv on phage
B16: anti-P-cadherin scFv 153 alanine-mutant H2.15-Ala (scFv, V domains shown)
VH: B1 VH with L64A
VL: B1 VL with A23S
notes: scFv on phage
B17: anti-P-cadherin scFv 153 alanine-mutant H2.16-Ala (scFv, V domains shown)
VH: B1 VH with Q65A
VL: B1 VL with A23S
notes: scFv on phage
B18: anti-P-cadherin scFv 153 alanine-mutant H2.17-Ala (scFv, V domains shown)
VH: B1 VH with G66A
VL: B1 VL with A23S
notes: scFv on phage
B19: anti-P-cadherin scFv 153 alanine-mutant H3.1-Ala (scFv, V domains shown)
VH: B1 VH with I99A
VL: B1 VL with A23S
notes: scFv on phage
B20: anti-P-cadherin scFv 153 alanine-mutant H3.2-Ala (scFv, V domains shown)
VH: B1 VH with D100A
VL: B1 VL with A23S
notes: scFv on phage
B21: anti-P-cadherin scFv 153 alanine-mutant H3.3-Ala (scFv, V domains shown)
VH: B1 VH with T101A
VL: B1 VL with A23S
notes: scFv on phage
B22: anti-P-cadherin scFv 153 alanine-mutant H3.5-Ala (scFv, V domains shown)
VH: B1 VH with N103A
VL: B1 VL with A23S
notes: scFv on phage
B23: anti-P-cadherin scFv 153 alanine-mutant H3.7-Ala (scFv, V domains shown)
VH: B1 VH with F105A
VL: B1 VL with A23S
notes: scFv on phage
B24: anti-P-cadherin scFv 153 alanine-mutant H3.8-Ala (scFv, V domains shown)
VH: B1 VH with G106A
VL: B1 VL with A23S
notes: scFv on phage
B25: anti-P-cadherin scFv 153 alanine-mutant H3.9-Ala (scFv, V domains shown)
VH: B1 VH with I107A
VL: B1 VL with A23S
notes: scFv on phage

Molecular target: T1, P-cadherin-ECD1-3-Fc protein (human P-cadherin-Fc) (human, UniProt P22223 108-440)
T1 construct: Construct was expressed with signal peptide and pro-peptide (PACE co-transfected to process the propeptide); not shown: hinge and CH2 and CH3 domains of human IgG1
T1 sequence (P22223 108-440): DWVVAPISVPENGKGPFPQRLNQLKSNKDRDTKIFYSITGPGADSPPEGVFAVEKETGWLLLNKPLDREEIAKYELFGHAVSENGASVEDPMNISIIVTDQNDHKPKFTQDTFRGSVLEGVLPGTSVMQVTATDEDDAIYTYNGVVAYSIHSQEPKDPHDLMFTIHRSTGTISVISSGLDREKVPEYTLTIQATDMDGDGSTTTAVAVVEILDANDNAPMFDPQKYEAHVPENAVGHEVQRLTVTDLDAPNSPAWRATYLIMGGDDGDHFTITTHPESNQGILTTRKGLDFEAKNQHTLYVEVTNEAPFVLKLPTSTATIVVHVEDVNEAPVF
Assay: phage scFv ELISA, coated P-cadherin-ECD1-3-Fc
Experimental: ScFvs may be expressed on the surface of a phage particle. To prepare phage expressing scFv on their surface, 96-deep well plates containing 1 mL 2× TY media with 2% glucose/100 μg/mL ampicillin were inoculated with 0.5-1 μL from thawed glycerol stocks (one clone per well) using the QPix™2 Colony picker (Molecular Devices, Sunnyvale Calif.) and grown at 37° C. (900 rpm) for ˜4 hours. Next, 5 μL of a 1:29 dilution of helper phage (8.3×10¹³ pfu) was added and the plates and incubated for a further 30 minutes at 37° C. with no shaking then 1 hour at 300 rpm. Plates were centrifuged and the media was replaced with a kanamycin/non-glucose containing media (2× TY with 50 μg/mL kanamycin and 100 μg/mL ampicillin). Plates were grown overnight at 25° C. (900 rpm), and phage were harvested in the supernatant following centrifugation.
(§1) P-cadherin-ECD1-3-Fc protein or negative control protein was coated overnight at 4° C. on 96-well Nunc Maxisorp® plates (Thermo Fisher Scientific, Madison, Conn.) at a concentration of 2 μg/mL in PBS+Ca²⁺ and Mg²⁺. Plates were washed three times using PBS+Ca²⁺ and Mg²⁺ and blocked for 1 hour at room temperature in 3% milk/PBS+Ca²⁺ and Mg²⁺. Phage samples prepared as described above were added to the blocked plates for 1 hour at room temperature. Plates were washed three times with PBS+Ca²⁺ and Mg²⁺ prior to the addition of secondary antibody (anti M13-HRP 1:2000, GE Healthcare, Piscataway, N.J.). Plates were incubated for a further 1 hour at room temperature and washed six times with PBS+Ca²⁺ and Mg²⁺. Signal was developed using TMB (SurModics, Eden Prairie, Minn.), the reaction stopped with H₂SO₄ and the absorbance read at 450 nm on an EnVision® plate reader (Perkin Elmer, Waltham, Mass.).

Going from B1 to B2, the “% of binding of Clone #153 to human P-cadherin-Fc” value falls from 166% to 97%.

First: B3
Second: B4
The “% of binding of Clone #153 to human P-cadherin-Fc” value of the first is lower: 165% for the first, 175% for the second.

Going from B5 to B6, the “% of binding of Clone #153 to human P-cadherin-Fc” value falls from 129% to 88%.

Compared with B7, B8 is lower in “% of binding of Clone #153 to human P-cadherin-Fc” value: 108% for the first, 75% for the second.

Compared with B9, B10 is higher in “% of binding of Clone #153 to human P-cadherin-Fc” value: 129% for the first, 137% for the second.

Going from B1 to B2, the “Human P-cadherin-Fc binding (OD450)” value falls from 2.19 OD450 to 1.28 OD450.

First: B3
Second: B4
The “Human P-cadherin-Fc binding (OD450)” value of the first is lower: 2.19 OD450 for the first, 2.31 OD450 for the second.

First: B5
Second: B6
The “Human P-cadherin-Fc binding (OD450)” value of the first is higher: 1.7 OD450 for the first, 1.16 OD450 for the second.

Going from B7 to B8, the “Human P-cadherin-Fc binding (OD450)” value falls from 1.42 OD450 to 1 OD450.

Compared with B9, B10 is higher in “Human P-cadherin-Fc binding (OD450)” value: 1.71 OD450 for the first, 1.81 OD450 for the second.

Compared with B1, B2 is lower in “Z Score” value: 1.4 for the first, -0.1 for the second.

First: B3
Second: B4
The “Z Score” value of the first is lower: 1.4 for the first, 1.6 for the second.

Compared with B5, B6 is lower in “Z Score” value: 0.6 for the first, -0.3 for the second.

First: B7
Second: B8
The “Z Score” value of the first is higher: 0.2 for the first, -0.5 for the second.

Going from B9 to B10, the “Z Score” value rises from 0.6 to 0.8.

Molecular target: T1, P-cadherin-ECD1-3-Fc protein (human …)
Assay: phage scFv ELISA, coated P-cadherin-ECD1-3-Fc
Remark: another data set of the same source
Experimental: as §1

First: B11
Second: B12
The “% of binding of Clone #153 to human P-cadherin-Fc” value of the first is lower: 154% for the first, 172% for the second.

First: B13
Second: B14
The “% of binding of Clone #153 to human P-cadherin-Fc” value of the first is higher: 163% for the first, 152% for the second.

Going from B15 to B16, the “% of binding of Clone #153 to human P-cadherin-Fc” value falls from 117% to 101%.

First: B17
Second: B18
The “% of binding of Clone #153 to human P-cadherin-Fc” value of the first is lower: 68% for the first, 162% for the second.

Compared with B19, B20 is higher in “% of binding of Clone #153 to human P-cadherin-Fc” value: 13% for the first, 168% for the second.

Going from B21 to B22, the “% of binding of Clone #153 to human P-cadherin-Fc” value falls from 171% to 58%.

Compared with B23, B24 is higher in “% of binding of Clone #153 to human P-cadherin-Fc” value: 23% for the first, 103% for the second.

For B25, the “% of binding of Clone #153 to human P-cadherin-Fc” value was 61%.

First: B11
Second: B12
The “Human P-cadherin-Fc binding (OD450)” value of the first is lower: 2.03 OD450 for the first, 2.27 OD450 for the second.

First: B13
Second: B14
The “Human P-cadherin-Fc binding (OD450)” value of the first is higher: 2.15 OD450 for the first, 2.01 OD450 for the second.

Compared with B15, B16 is lower in “Human P-cadherin-Fc binding (OD450)” value: 1.54 OD450 for the first, 1.34 OD450 for the second.

Compared with B17, B18 is higher in “Human P-cadherin-Fc binding (OD450)” value: 0.9 OD450 for the first, 2.14 OD450 for the second.

Compared with B19, B20 is higher in “Human P-cadherin-Fc binding (OD450)” value: 0.17 OD450 for the first, 2.22 OD450 for the second.

Going from B21 to B22, the “Human P-cadherin-Fc binding (OD450)” value falls from 2.26 OD450 to 0.77 OD450.

First: B23
Second: B24
The “Human P-cadherin-Fc binding (OD450)” value of the first is lower: 0.31 OD450 for the first, 1.36 OD450 for the second.

In the case of B25, the “Human P-cadherin-Fc binding (OD450)” value is reported as 0.8 OD450.

First: B11
Second: B12
The “Z Score” value of the first is lower: 1.1 for the first, 1.5 for the second.

First: B13
Second: B14
The “Z Score” value of the first is higher: 1.3 for the first, 1.1 for the second.

First: B15
Second: B16
The “Z Score” value of the first is higher: 0.4 for the first, 0 for the second.

First: B17
Second: B18
The “Z Score” value of the first is lower: -0.7 for the first, 1.3 for the second.

Compared with B19, B20 is higher in “Z Score” value: -1.8 for the first, 1.4 for the second.

First: B21
Second: B22
The “Z Score” value of the first is higher: 1.5 for the first, -0.9 for the second.

Going from B23 to B24, the “Z Score” value rises from -1.6 to 0.1.

For B25, the “Z Score” value was -0.8.
